# Measured values reported in patent US20250115677A1, “Anti-CEA Antibody Drug Conjugates and Methods of Use” (BeiGene Switzerland GmbH, priority 2022, published 2025).
# Read-outs that look alike come from different tables or passages of the source.
# T1: chimeric construct (CHIM) (human)
# T1 construct: CEACAM6 AA 1-273 joined to the membrane-peripheral region containing domain B3 of CEA (AA 596-687), C-terminal 6xHis; also called chimeric CEA
# T1 chain: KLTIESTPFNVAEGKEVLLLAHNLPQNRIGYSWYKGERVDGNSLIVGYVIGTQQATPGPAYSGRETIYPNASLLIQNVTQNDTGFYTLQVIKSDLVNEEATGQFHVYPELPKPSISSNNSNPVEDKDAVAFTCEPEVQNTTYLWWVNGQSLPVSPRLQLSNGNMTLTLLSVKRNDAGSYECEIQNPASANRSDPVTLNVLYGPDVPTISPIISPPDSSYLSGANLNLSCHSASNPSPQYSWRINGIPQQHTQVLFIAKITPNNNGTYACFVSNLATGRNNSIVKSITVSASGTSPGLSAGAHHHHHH
# T2: CHIM (Homo sapiens, UniProt P06731, A174T/A211G/A239V/A261S/A267P/C12H/D173N/E253A/E283V/F203L/F272R/F277P/F63I/H123Q/H61N/H9C/I100T/I112V/I113T/I13V/I230T/I80V/INS244IISP/K155N/K214E/L18V/L245P/L62R/N182G/N204S/N246D/N288K/P266S/P287A/Q16K/Q78L/R139H/R17E/R198M/R224N/R250L/R77S/S228P/S280H/T171V/T206K/T210A/T217I/T247S/T276I/V221A/V273I/V291P/V55A/W11L)
# T2 construct: CEACAM6 N-terminal part (fusion partner); 6xHis (C); made in house; host or cells: HEK293-based mammalian cell expression system
# T2 sequence (P06731 with tags, fused parts or gaps H9C/W11L/C12H/I13V/Q16K/R17E/L18V/V55A/H61N/L62R/F63I/R77S/Q78L/I80V/I100T/I112V/I113T/H123Q/R139H/K155N/T171V/D173N/A174T/N182G/R198M/F203L/N204S/T206K/T210A/A211G/K214E/T217I/V221A/R224N/S228P/I230T/A239V/INS244IISP/L245P/N246D/T247S/R250L/E253A/A261S/P266S/A267P/F272R/V273I/T276I/F277P/S280H/E283V/P287A/N288K/V291P): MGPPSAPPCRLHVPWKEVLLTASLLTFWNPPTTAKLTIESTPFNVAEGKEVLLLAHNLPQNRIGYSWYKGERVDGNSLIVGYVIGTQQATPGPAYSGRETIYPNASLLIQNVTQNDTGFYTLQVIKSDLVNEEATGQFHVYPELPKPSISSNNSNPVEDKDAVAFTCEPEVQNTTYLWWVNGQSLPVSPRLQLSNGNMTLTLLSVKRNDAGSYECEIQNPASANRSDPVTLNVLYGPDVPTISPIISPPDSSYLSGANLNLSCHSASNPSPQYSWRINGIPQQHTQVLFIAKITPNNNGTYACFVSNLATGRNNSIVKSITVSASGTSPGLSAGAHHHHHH
# T3: huCEA surface protein (LOVO cells) (Homo sapiens, UniProt P06731)
# T3 construct: host or cells: LOVO
# T3 sequence (P06731 35-676): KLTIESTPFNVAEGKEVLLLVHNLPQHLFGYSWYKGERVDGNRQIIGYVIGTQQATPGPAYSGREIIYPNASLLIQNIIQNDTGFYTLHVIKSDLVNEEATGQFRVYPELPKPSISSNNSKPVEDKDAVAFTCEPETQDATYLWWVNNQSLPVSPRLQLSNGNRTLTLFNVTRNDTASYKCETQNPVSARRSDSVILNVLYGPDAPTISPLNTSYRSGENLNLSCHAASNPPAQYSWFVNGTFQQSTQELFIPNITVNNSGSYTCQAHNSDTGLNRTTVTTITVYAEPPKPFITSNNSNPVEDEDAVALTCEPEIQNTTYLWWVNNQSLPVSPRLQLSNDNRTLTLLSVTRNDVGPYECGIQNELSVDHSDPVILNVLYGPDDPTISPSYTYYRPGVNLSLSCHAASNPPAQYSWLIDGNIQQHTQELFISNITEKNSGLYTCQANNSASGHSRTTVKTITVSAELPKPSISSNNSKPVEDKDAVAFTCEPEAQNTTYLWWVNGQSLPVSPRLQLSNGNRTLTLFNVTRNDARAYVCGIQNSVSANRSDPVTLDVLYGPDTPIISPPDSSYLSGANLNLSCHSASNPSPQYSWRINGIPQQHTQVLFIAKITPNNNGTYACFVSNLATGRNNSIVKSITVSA
# Columns and labels:
# [1] = system: MKN45 cells; experiment: Payload sensitivity of MKN45 cells; assay type: cell-based, human
# Description: At Day 0, cells were harvested with 0.25% trypsin-EDTA, plated at 5,000 cells/well in 96-well plates (655090, Greiner), and incubated at 37° C., 5% CO2 overnight. At Day 1, payload compounds were added (5× dilution) into plates. Cell and compound mixtures were incubated at 37° C., 5% CO2 for 6 days. Survival cell signaling was collected at Day 6 with 100 μL of detection reagent (G7573, Promega®); signal was read by Tecan Spark®. Data were analyzed by GraphPad Prism 9.0.0. All killing concentrations were duplicated or triplicated (Table 21 and FIG. 16). “SABC” refers to specific antibody binding capacity.
# [2] = biological target: T1, chimeric construct (CHIM); experiment: SPR (BIAcore T-200); antibody captured on anti-human IgG chip, CHIM flowed (1.37-333 nM)
# Description: For this experiment, anti-human IgG (Fc) antibody was immobilized on an activated CM5 biosensor chip (Cat. No. BR100839, GE Life Sciences). Anti-CEA antibodies were flowed over the chip surface and captured by anti-human Fab antibody. […] For flow cytometry, CEA-expressing cells (10′ cells/well) were incubated with various concentrations of purified affinity-matured antibodies, followed by binding with Alexa Fluro-647-labeled anti-hu IgG Fc antibody (Cat. No. 409320, BioLegend, USA). Cell fluorescence was quantified using a flow cytometer (Guava easyCyte™ 8HT, Merck-Millipore, USA). The equilibrium dissociation constant (KD) was calculated as the ratio koff/kₒₙ.
# [3] = biological target: T2, CHIM; experiment: SPR affinity comparison of affinity matured humanized BGA7592 variants on CHIM; assay type: binding; conditions: Table 9, SPR on CHIM
# Description: (§1) Affinity comparison of BGA7592-1F (BGA5366) and other affinity matured clones was made by SPR assay (Table 9) using BIAcore™ T-200 (GE Life Sciences) and flow cytometry (FIG. 7). For this experiment, anti-human IgG (Fc) antibody was immobilized on an activated CM5 biosensor chip (Cat. No. BR100839, GE Life Sciences). Anti-CEA antibodies were flowed over the chip surface and captured by anti-human Fab antibody. Then a serial dilution (1.37 nM to 333 nM) of CHIM was flowed over the chip surface and changes in surface plasmon resonance signals were analyzed to calculate the association rates (kon) and dissociation rates (koff) by using the one-to-one Langmuir binding model (BIA Evaluation Software, GE Life Sciences). For flow cytometry, CEA-expressing cells (10′ cells/well) were incubated with various concentrations of purified affinity-matured antibodies, followed by binding with Alexa Fluro-647-labeled anti-hu IgG Fc antibody (Cat. No. 409320, BioLegend, USA). Cell fluorescence was quantified using a flow cytometer (Guava easyCyte™ 8HT, Merck-Millipore, USA). The equilibrium dissociation constant (KD) was calculated as the ratio koff/kon.
# [4] = biological target: T3, huCEA surface protein (LOVO cells); experiment: Flow cytometry binding of affinity matured humanized BGA7592 variants to LOVO cells
# Description: as §1
# [5] = biological target: T1, chimeric construct (CHIM); experiment: SPR; binding to CHIM
# [6] = biological target: T2, CHIM; experiment: SPR affinity comparison of affinity matured humanized BGA7592 variants on CHIM; assay type: binding
molecule,measurement,setting,value
"COc1cc2cc(c1Cl)N(C)C(=O)C[C@H](OC(=O)[C@H](C)N(C)C(=O)CCC(C)(C)S)[C@]1(C)O[C@H]1[C@H](C)[C@@H]1C[C@@](O)(NC(=O)O1)[C@H](OC)/C=C/C=C(\C)C2 [P1, DM4]",Emax,"[1]; MKN45, 6 days",97.6
same,EC50,"[1]; MKN45, 6 days, read-out: EC50",0.00116 µM
"CC[C@@]1(O)C(=O)OCc2c1cc1n(c2=O)Cc2c-1nc1cc(F)c(C)c3c1c2[C@@H](NC(=O)CO)CC3 [P2, DXD]",EC50,"[1]; Homo sapiens, MKN-45, […]",0.00208 µM
same,Emax,"[1]; Homo sapiens, MKN-45, […]",98.1%
"CC[C@@]1(O)C(=O)OCc2c1cc1n(c2=O)Cc2c-1nc1cc(F)c(C)c3c1c2[C@@H](NC(=O)C(C)(C)CO)CC3 [P3, N-((1S,9S)-9-ethyl-5-fluoro-9-hydroxy-4-methyl-10,13-dioxo-2,3,9,10,13,15-hexahydro-1H,12H-benz′[d′]pyrano[3′,4′:6,7]indolizino[1,2-b]quinolin-1-yl)-3-hydroxy-2,2-dimethylpropanamide]",EC50,"[1]; Homo sapiens, MKN-45, MKN45, 6 days, read-out: EC50",0.00089 µM
same,Emax,"[1]; Homo sapiens, MKN-45, MKN45, 6 days, read-out: Emax",97%
"BGA7592-1F (antibody, human IgG1, V domains shown, BGA7592-1 with N54Q, N59S, S61A in VH; human IgG1 wild type / kappa format; also called BGA5366) VH: QVQLVQSGAEVKKPGASVKVSCKASGYIFTSYWLHWVRQAPGQGLEWIGYINPQTGYTSYAQKFQGRVTMTRDTSTSTVYMELSSLRSEDTAVYYCAREYGNYNYPLDYWGQGTLVTVSS VL: DIQMTQSPSSLSASVGDRVTITCRASENIYGYLAWYQQKPGKVPKLLIYNAKNLVEGVPSRFSGSGSGTDFTLTISSLQPEDVATYYCQHHYGTPYTFGQGTKVEIK",Kd,[2],0.79 µM
same,koff,[2],0.0015 s⁻¹
same,kon,[2],1900 M⁻¹ s⁻¹
"BGA7592-1F-ph-L (BGA3676): affinity matured clone of BGA7592-1F, ""(SEQ ID NO:95)"", ""improved affinities to huCEA surface protein"" (protein, Synthetic: BGA7592-1F-ph-L VL) DIQMTQSPSSLSASVGDRVTITCRASENQYGYLAWYQQKPGKVPKLLIYNFKNLVEGVPSRFSGSGSGTDFTLTISSLQPEDVATYYCQHHLGTPYTFGQGTKVEIK",Ka,[3],6700 M⁻¹ s⁻¹
same,Rmax,[3],184 RU
same,affinities to huCEA surface protein,[4],improved affinities
"BGA7592-1F (BGA5366): ""BGA7592-1F (also described herein as BGA5366)""; humanized anti-CEA antibody, parent of the affinity matured clones (antibody, V domains shown) VH: QVQLVQSGAEVKKPGASVKVSCKASGYIFTSYWLHWVRQAPGQGLEWIGYINPQTGYTSYAQKFQGRVTMTRDTSTSTVYMELSSLRSEDTAVYYCAREYGNYNYPLDYWGQGTLVTVSS VL: DIQMTQSPSSLSASVGDRVTITCRASENIYGYLAWYQQKPGKVPKLLIYNAKNLVEGVPSRFSGSGSGTDFTLTISSLQPEDVATYYCQHHYGTPYTFGQGTKVEIK",Ka,[3],1900 M⁻¹ s⁻¹
same,Rmax,[3],367 RU
"BGA7592-1F-ph-M (antibody, human IgG1, V domains shown, human IgG1/kappa; also called BGA2433) VH: QVQLVQSGAEVKKPGASVKVSCKASGYIFTSYWLHWVRQAPGQGLEWIGYINPQTGYTSYAQKFQGRVTMTRDTSTSTVYMELSSLRSEDTAVYYCAREYGNYNYPLDYWGQGTLVTVSS VL: DIQMTQSPSSLSASVGDRVTITCRASENQYGYLAWYQQKPGKVPKLLIYNTKNLVEGVPSRFSGSGSGTDFTLTISSLQPEDVATYYCQHHLGTPYTFGQGTKVEIK",Kd,[5],0.0126 µM
same,koff,[5],0.000248 s⁻¹
same,kon,[5],19700 M⁻¹ s⁻¹
same,Kd,[2],0.099 µM
same,koff,[2],0.00025 s⁻¹
same,kon,[2],2500 M⁻¹ s⁻¹
"BGA8179 (antibody, human IgG1, V domains shown, Built on the BGA7592-1F-ph-M (BGA2433) template; human IgG1/kappa) VH: QVQLVQSGAEVKKPGASVKVSCKASGYIFTSYYLHWVRQAPGQGLEWIGYINPQTGYTSYAQKFQGRVTMTRDTSTSTVYMELSSLRSEDTAVYYCAREYGNYNYPLDYWGQGTLVTVSS VL: DIQMTQSPSSLSASVGDRVTITCRASENQYGYLAWYQQKPGKVPKLLIYNTKNLVEGVPSRFSGSGSGTDFTLTISSLQPEDVATYYCQHHLGTPYTFGQGTKVEIK",Kd,[5],0.0142 µM
same,koff,[5],0.000282 s⁻¹
same,kon,[5],19900 M⁻¹ s⁻¹
same,binding activities compared to BGA7592-1F-ph-F (BGA9521),[6],improved binding activities
same,Ka,"[6]; Table 11, SPR to CHIM",19900 M⁻¹ s⁻¹
same,Rmax,"[6]; Table 11, SPR to CHIM",129.1 RU
"BGA7592-1F-ph-L (antibody, human IgG1, V domains shown, human IgG1/kappa; also called BGA3676) VH: QVQLVQSGAEVKKPGASVKVSCKASGYIFTSYWLHWVRQAPGQGLEWIGYINPQTGYTSYAQKFQGRVTMTRDTSTSTVYMELSSLRSEDTAVYYCAREYGNYNYPLDYWGQGTLVTVSS VL: DIQMTQSPSSLSASVGDRVTITCRASENQYGYLAWYQQKPGKVPKLLIYNFKNLVEGVPSRFSGSGSGTDFTLTISSLQPEDVATYYCQHHLGTPYTFGQGTKVEIK",Kd,[2],0.046 µM
same,koff,[2],0.0003 s⁻¹
same,kon,[2],6700 M⁻¹ s⁻¹
